The record followed here is patent US12371675B2, “Process and microorganism for synthesis of adipic acid from carboxylic acids” (THE GOVERNING COUNCIL OF THE UNIVERSITY OF TORONTO, priority 2015, dated 2025).

Series [1] can be described thus: Whole-cell biotransformation of muconic acid by E. coli expressing EREDs. The format is cell-based. The settings on record: 0.7 mM, 24-hr incubation. Here is the method:
After a 24-hr incubation, no muconic acid or 2-hexenedioic acid were detected in the culture, and a 99% yield of adipic acid was obtained (FIGS. 8a, 8b, and 8c). […] The 3-hexenedioic acid-like compound appears to be an inefficient substrate for these EREDS. This is similar to the mutated 2,4-dienoyl-CoA reductases from E. coli, which catalyze hydrogenation of 2,4-dienoyl CoA into 3-enoyl CoA (Tu, X., Hubbard, P. A., Kim, J. J. P. & Schulz, H. Two distinct proton donors at the active site of Escherichia coli 2,4-dienoyl-CoA reductase are responsible for the formation of different products. Biochemistry 47, 1167-1175 (2008).).

The nature of series [2]: Whole-cell anaerobic biotransformation by E. coli expressing EREDs. The series is classed as cell-based. The conditions noted are these: 20 mM 2-hexenedioic acid.

B1: EREDCL: 2-enoate reductase (ERED) from Clostridium ljungdahlii DSM 13528 (protein)
chain: MKNKSLFQPIKIGKMEVKNKISMAPMGAFGLVDNEGCYNQRAIDYYVERAKGGTGLIITSITKVENELDKVVPGIIPVISTNPGRFLMTSSEMTERVHAYGAKIFLQLTMGFGRSGAPGTLLTSQPVSASDIPNYWDPTVTCRALTTSEVEWIVSKFIEGADIAQKADFDGVEIHAVHEGYLLDQFTLSIFNRRTDKYGGDLRGRLQLPIEIVQGIKARLGDDFPVGLRYSVKSCIKDWRQGGLPDEDYLEKGRDLKEGLDAAKILEAAGYDELNTDLGTYDAWYWSHPPIYQKNGLYLPYTKELKKVVKIPVIVAGKLGIPEDAEKALDDKAADMIGLGRPLLADPYWPKKVLSDNSERIRPCIGCHTGCLGRGFEGKPLSCTVNPAVGRERYYEIKPTLTPKKVMVVGGGVAGMEAARIIKMRGHDVTIYEGTDKLGGVIIPGSVPDFKVDDRRLIDWYKSEIKELEVKVNFNTKVTEELVEEEKPDVVIIATGAKEIKINVPGIEKDKVITALELLNDNKKVGNDVLMVGGGLVGCEAALYLAKQGKNVTIVEAKDTLLNSSKPIPHMNKIMLIDLLNMYNVKAITNNSLLEVTDKGAVLINNKFKKQEVSADTVTIAVGFKSDRELYNKLNGNIADLYLIGDAYQSANIMNAIWSANEIGLNC
Regarding B1, the “yield of adipic acid from trans,trans-muconic acid” value in series [1] was 99%. The “time to complete conversion of 2-hexenedioic acid to adipic acid” value in series [2] is reported as 48 h.

B2: EREDMT: 2-enoate reductase (ERED) from Moorella thermoacetica ATCC 39073 (protein)
chain: MVVAYTRLFEPIKIGKVEIKNKIAMAPMGVLGLATQDGCFSKRVVDYYVERAKGGTGLIITSVTKVDNEIERFKAGAVPVATANPLHFIATAGELTERVHAYGTKIFLQLGMGFGRVAAPILLESHPVAPSALPNFWDPSITCRELTTAEVETLVQRASEAAEIAVEAGFDGVEIHAMHEGYLLDQFTIALFNRRGDKYGGALEDRLTFPIEIVRAIKDRVGKDFPVVLRFSIKNYIKDWRQGGLPGENFQEKGRDVEEALAAAKILEGAGYDGFDADAGSYDAWYWAHPPVYQKHGCYLPLTQRLKEVVKVPVIVAGRLEIPELAEEALVKGQADMIAIGRGLLTDPYWVNKVMTGRSKNIRPCIGCHDGCLGRGFLGRPLSCTVNPACGREEEYAIDRAPEAKQVMVIGGGVAGMEAARVAALRGHRVSLYEKSDRLGGHVVEAAVPDFKADDGRLLEWYKTELGELQVEIHLNQEVTPEFVEEKNPDVVVVATGSTPAIPDIPGVNKDKVTTVSDLLLGKKQAGDRVVIIGGGLAGCETALWLAQQGKDVTIIEILDDLMRAGIPVPYMNRMMLLDLLKMNGVKWLTETSVLEVTDDGVTLIGKTYQRSPLPADTVILAVGFAADQRLYNALRDKIPNLYLIGDSREPRNILAAIWEGYEVGRGI
Consider B2, for which, in series [1], the “yield of adipic acid from cis,cis-muconic acid” value was found to be 99% and the “yield of adipic acid from trans,trans-muconic acid” value turned out to be 99%. Also, the “time to complete conversion of 2-hexenedioic acid to adipic acid” value in series [2] was found to be 6 h.
